Data on four molecules can be found in patent publication US20120301476A1 (TORAY INDUSTRIES, published 2012).

The target in assay [1] is T1, human CAPRIN-1 protein on the cell surfaces of human cancer cell lines and in human cancer tissues (human, UniProt Q14444 2-709).
T1 construct: whole, on cells; Endogenous protein of human cancer cell lines (flow cytometry, ADCC, CDC) and of human cancer tissue sections (immunohistochemistry); also called CAPRIN-1 protein expressed on the cell membrane surfaces
T1 sequence (looked up): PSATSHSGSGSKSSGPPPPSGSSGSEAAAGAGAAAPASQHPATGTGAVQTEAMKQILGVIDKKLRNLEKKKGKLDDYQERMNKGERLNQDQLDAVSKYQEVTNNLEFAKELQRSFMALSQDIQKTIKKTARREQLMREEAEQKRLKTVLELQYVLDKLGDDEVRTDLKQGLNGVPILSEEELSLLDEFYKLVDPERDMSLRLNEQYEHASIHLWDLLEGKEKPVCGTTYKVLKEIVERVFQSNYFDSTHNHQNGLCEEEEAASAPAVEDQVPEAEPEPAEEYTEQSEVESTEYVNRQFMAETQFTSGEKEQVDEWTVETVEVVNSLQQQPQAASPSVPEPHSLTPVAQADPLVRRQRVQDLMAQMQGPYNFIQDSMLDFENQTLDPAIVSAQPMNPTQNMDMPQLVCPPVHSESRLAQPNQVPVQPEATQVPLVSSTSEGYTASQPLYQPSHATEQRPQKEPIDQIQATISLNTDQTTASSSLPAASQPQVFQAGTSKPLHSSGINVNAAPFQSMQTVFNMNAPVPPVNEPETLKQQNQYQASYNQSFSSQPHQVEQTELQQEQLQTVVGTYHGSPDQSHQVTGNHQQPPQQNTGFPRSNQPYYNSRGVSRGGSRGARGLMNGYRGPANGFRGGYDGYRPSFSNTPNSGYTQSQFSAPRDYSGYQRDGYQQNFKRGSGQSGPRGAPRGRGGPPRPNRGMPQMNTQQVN
In words: flow cytometry on the listed human cancer cell lines, culture supernatant, against negative control. How it is done: 10⁶ cells of each cell line were centrifuged in a 1.5 ml microcentrifuge tube. Each cell culture supernatant (100 μl) of CHO-K1 cells containing #1 obtained in (2) above and hybridomas producing #2, #3, #4, #5, and #6 obtained in Example 3 was added and then left to stand on ice for 1 hour. After washing with PBS, a FITC-labeled goat anti-human IgG (H+L) antibody (SouthernBiotech) and a FITC-labeled anti-mouse IgG (H+L) antibody (Invitrogen) diluted 500-fold with PBS containing 0.1% FBS were added and then left to stand on ice for 1 hour. After washing with PBS, fluorescence intensity was measured using a FACS Calibur (Becton, Dickinson). Meanwhile, procedures similar to the above were performed using a culture supernatant of CHO-K1 cells into which no antibody gene had been introduced and medium for culturing hybridomas, so that a negative control sample was prepared. […] Specifically, when the antibody #1 was used, fluorescence intensity was enhanced to 4700% in the case of SK-BR-3 and 5500% in the case of MDA-MB-231V. Also, when the antibodies #2, #3, #4, #5, and #6 were used, fluorescence intensity was enhanced. […] The percentage of enhancement in the above fluorescence intensity was expressed as percentage of increase in mean fluorescence intensity (MFI level) in each type of cell and calculated by the following formula.
In general terms: In flow cytometry, cells or beads pass a laser one at a time.

The target of assay [2] is T1, human CAPRIN-1 protein on the cell …. Put plainly: cell-based or functional assay.
Assay [3] deals with T2, peptide of SEQ ID NO: 69 (partial sequence in the polypeptide of SEQ ID NO: 37) (human).
T2 peptide: QQPQAASPSVPE
In words: ELISA on immobilised synthetic peptides. The procedure:
(§1) Each peptide was dissolved in 0.1M sodium carbonate buffer (pH 9.6) at a concentration of 30 μg/ml, added to a 96-well plate (Nunc, Product No. 436006) at 100 μl per well, and then left to stand at 4° C. overnight. The solution was discarded, 10 mM ethanolamine/0.1M sodium carbonate buffer (PH 9.6) was added at 200 μl per well, and then the plate was left to stand at room temperature for 1 hour. The solution was discarded, the plate was washed twice with PBS (PBST) containing 0.5% Tween20, so that the plate with each peptide immobilized thereto was prepared.
(§2) A cell culture supernatant containing the human-chicken chimeric monoclonal antibody (#1) and the mouse monoclonal antibodies (#2, #3, #4, #5, and #6) obtained in Example 4 (2) was added to the plate at 50 μl per well. After 1 hour of shaking at room temperature, the solution was removed, and then the plate was washed three times with PBST. Next, an HRP-labeled anti-human IgG (Invitrogen) antibody diluted 3000- to 4000-fold with PBST (a secondary antibody solution) was added to each well of the human-chicken chimeric monoclonal antibody and an HRP-labeled anti-mouse IgG (Invitrogen) antibody diluted 3000- to 4000-fold with PBST (a secondary antibody solution) was added to each well of the mouse monoclonal antibody, at 50 μl per well, and then the solution was removed, followed by six times of washing with PBST.
(§3) A TMB substrate solution (Thermo) was added at 100 μl per well, and the plate was left to stand for 15 to 30 minutes for coloring reaction. After color development, 1N sulfuric acid was added at 100 μl per well to stop the reaction and then absorbances at 450 nm and 595 nm were measured using an absorption spectrometer. As a result, the polypeptide of SEQ ID NO: 37 was identified as a CAPRIN-1 partial sequence that is recognized by all of the anti-CAPRIN-1 monoclonal antibodies #1 to #6. Furthermore, the peptide of SEQ ID NO: 69 was identified as a partial sequence in the above polypeptide of SEQ ID NO: 37, which is recognized by the monoclonal antibodies #1, #4, and #5. […]
(An ELISA detects its analyte on a solid surface through an enzyme-linked reagent.)

Assay [4] addresses T3, peptide of SEQ ID NO: 70 (partial sequence in the polypeptide of SEQ ID NO: 37) (human).
T3 peptide: FTSGEKEQVDEW
Put plainly: ELISA on immobilised synthetic peptides. The procedure: as §1, §2, §3

Where only a bound is given, the exact number is not on record here.

B1: anti-CAPRIN-1 mouse monoclonal antibody #4 (antibody, V domains shown)
VH: GAELVRSGASVKMSCKASGYSFTDYNMYWVKQTPGQGLEWIGYIYPGNGGTNYNQKFKGKATLTADTSSSTAYMQISSLTSEDSAVYFCARDYDDGGYAMDYWGQGTTVTVSS
VL: DIQMTQSPASLSASVGETVTITCRASGNIHNYLTWYQQKQGKSPQLLVYNAKTLADGVPSRFSGSGSGTQYSLKINRLQPEDFGSYYCQHFWNIPWTFGGGTKLNSR
B1: the “percentage of increase in mean fluorescence intensity” value (from here on “percentage of increase”) in assay [1] was not below 20%. In assay [2], the “cytotoxic activity (ADCC) against A549” value was not below 24%, the “cytotoxic activity (ADCC) against ACHN” value is not below 14%, the “cytotoxic activity (ADCC) against AML5” value was not below 10% and the “cytotoxic activity (ADCC) against Caki-1” value is not below 23%. Moreover, in assay [2], the “cytotoxic activity (ADCC) against KYSE180” value was not below 22%, the “cytotoxic activity (ADCC) against MDA-MB-157” value came to 31%, the “cytotoxic activity (ADCC) against MNK28” value is not below 15% and the “cytotoxic activity (ADCC) against MNK45” value is not below 10%. In addition, in assay [2], the “cytotoxic activity (ADCC) against QG56” value is not below 20%, the “cytotoxic activity (ADCC) against Ramos” value is not below 10%, the “cytotoxic activity (ADCC) against SW480” value is not below 17% and the “cytotoxic activity (ADCC) against SW756” value is not below 16%. Besides, in assay [2], the “cytotoxic activity (ADCC) against T24” value is not below 18%, the “cytotoxic activity (ADCC) against T98G” value is not below 12% and the “cytotoxic activity (ADCC) against U373” value was not below 16%.

B2: anti-CAPRIN-1 mouse monoclonal antibody #5 (antibody, V domains shown)
VH: GAELVRSGASVKMSCKASGYSFTDYNMYWVKQTPGQGLEWIGYIYPGNGGTNYNQKFKGKATLTADTSSSTAYMQISSLTSEDSAVYFCARDYDDGGYAMDYWGQGTTVTVSS
VL: DIQMTQSPASLSASVGETVTITCRASGNIHNYLTWYQQKQGKSPQLLVYNAKTLADGVPSRFSGSGSGTQYSLKINRLQPEDFGSYYCQHFWNIPWTFGGGTKLNSR
notes: Mouse hybridoma antibody; detected with anti-mouse IgG
Regarding B2, in assay [3], the binding result is “binds”. Further, in assay [1], the “percentage of increase” value was not below 20%. Also, in assay [2], the “cytotoxic activity (ADCC) against A549” value is not below 24%, the “cytotoxic activity (ADCC) against ACHN” value is not below 14%, the “cytotoxic activity (ADCC) against AML5” value was not below 10% and the “cytotoxic activity (ADCC) against Caki-1” value is not below 23%. In assay [2], the “cytotoxic activity (ADCC) against KYSE180” value is not below 22%, the “cytotoxic activity (ADCC) against MDA-MB-157” value is 30.9%, the “cytotoxic activity (ADCC) against MNK28” value was not below 15% and the “cytotoxic activity (ADCC) against MNK45” value was not below 10%. Also, in assay [2], the “cytotoxic activity (ADCC) against QG56” value was not below 20%, the “cytotoxic activity (ADCC) against Ramos” value was not below 10%, the “cytotoxic activity (ADCC) against SW480” value is not below 17% and the “cytotoxic activity (ADCC) against SW756” value was not below 16%. Further, in assay [2], the “cytotoxic activity (ADCC) against T24” value is not below 18%, the “cytotoxic activity (ADCC) against T98G” value is not below 12% and the “cytotoxic activity (ADCC) against U373” value was not below 16%.

B3: anti-CAPRIN-1 mouse monoclonal antibody #3 (antibody, V domains shown)
VH: GGGLVKPGGSLKLSCAASGFTFSSYGMSWVRQTPEKRLEWVATISSGGSYTYYPDSVKGRFTISRDNAKNTLYLQMSSLRSEDTAMYYCASLASYYFDYWGQGTTLTVSS
VL: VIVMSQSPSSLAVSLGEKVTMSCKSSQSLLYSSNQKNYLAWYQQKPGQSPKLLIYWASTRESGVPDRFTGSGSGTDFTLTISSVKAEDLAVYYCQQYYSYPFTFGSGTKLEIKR
For B3, the “percentage of increase” value in assay [1] was not below 20%. Also, in assay [2], the “cytotoxic activity (ADCC) against A549” value is not below 24%, the “cytotoxic activity (ADCC) against ACHN” value was not below 14%, the “cytotoxic activity (ADCC) against AML5” value was not below 10% and the “cytotoxic activity (ADCC) against Caki-1” value was not below 23%. Also, in assay [2], the “cytotoxic activity (ADCC) against KYSE180” value was not below 22%, the “cytotoxic activity (ADCC) against MDA-MB-157” value is 32.4%, the “cytotoxic activity (ADCC) against MNK28” value was not below 15% and the “cytotoxic activity (ADCC) against MNK45” value is not below 10%. In addition, in assay [2], the “cytotoxic activity (ADCC) against QG56” value was not below 20%, the “cytotoxic activity (ADCC) against Ramos” value is not below 10%, the “cytotoxic activity (ADCC) against SW480” value is not below 17% and the “cytotoxic activity (ADCC) against SW756” value was not below 16%. In addition, in assay [2], the “cytotoxic activity (ADCC) against T24” value was not below 18%, the “cytotoxic activity (ADCC) against T98G” value was not below 12% and the “cytotoxic activity (ADCC) against U373” value was not below 16%.

B4: anti-CAPRIN-1 mouse monoclonal antibody #6 (antibody, V domains shown)
VH: DAELVKPGASVKISCKASGYTFTDHSIHWVQQKPEQGLEWIGYISPGNGNIKYNEKFKGKATLTADKSSSTAYMQLNSLTSEDSAVYFCKRSLGRGGPYYFDYWGQGTTVTVSS
VL: DIVLTQAAPSLPVTPGESVSISCRSSKSLLHSNGNTYLYWFLQRPGQSPQLLIYRMSNLASGVPDRFSGSGSGTAFTLRISRVEAEDVGVYYCMQHREYPVTFGSGPN
notes: as for B2
As to B4, the binding result in assay [4] is given as “binds”. Besides, the “percentage of increase” value in assay [1] is not below 20%. Also, in assay [2], the “cytotoxic activity (ADCC) against A549” value was not below 24%, the “cytotoxic activity (ADCC) against ACHN” value was not below 14%, the “cytotoxic activity (ADCC) against AML5” value was not below 10% and the “cytotoxic activity (ADCC) against Caki-1” value is not below 23%. Also, in assay [2], the “cytotoxic activity (ADCC) against KYSE180” value was not below 22%, the “cytotoxic activity (ADCC) against MDA-MB-157” value is 19%, the “cytotoxic activity (ADCC) against MNK28” value is not below 15% and the “cytotoxic activity (ADCC) against MNK45” value was not below 10%. For the same molecule, in assay [2], the “cytotoxic activity (ADCC) against QG56” value was not below 20%, the “cytotoxic activity (ADCC) against Ramos” value is not below 10%, the “cytotoxic activity (ADCC) against SW480” value was not below 17% and the “cytotoxic activity (ADCC) against SW756” value is not below 16%. In assay [2], the “cytotoxic activity (ADCC) against T24” value was not below 18%, the “cytotoxic activity (ADCC) against T98G” value is not below 12% and the “cytotoxic activity (ADCC) against U373” value was not below 16%.
